Measured values reported in US20240043489A1, “Cytokine Prodrugs Comprising a Cleavable Linker” (Trutino Biosciences Inc., priority 2020, published 2024).
Values joined by “and” are separate entries in the source; they are usually repeats but may differ in a detail not shown here. Equal entries are not always repeated. Where two headings read alike, the source gives them in different places.

Assays:
heparin [1] = conditions: Note 1, cited from earlier work
Collagen type I = Collagen type I (Homo sapiens, UniProt P02452+P08123); conditions: binds to Collagen type I; Note 1 of Table 2; cited from earlier work
Collagen type I, sequence (P02452 162-1218 limits assumed): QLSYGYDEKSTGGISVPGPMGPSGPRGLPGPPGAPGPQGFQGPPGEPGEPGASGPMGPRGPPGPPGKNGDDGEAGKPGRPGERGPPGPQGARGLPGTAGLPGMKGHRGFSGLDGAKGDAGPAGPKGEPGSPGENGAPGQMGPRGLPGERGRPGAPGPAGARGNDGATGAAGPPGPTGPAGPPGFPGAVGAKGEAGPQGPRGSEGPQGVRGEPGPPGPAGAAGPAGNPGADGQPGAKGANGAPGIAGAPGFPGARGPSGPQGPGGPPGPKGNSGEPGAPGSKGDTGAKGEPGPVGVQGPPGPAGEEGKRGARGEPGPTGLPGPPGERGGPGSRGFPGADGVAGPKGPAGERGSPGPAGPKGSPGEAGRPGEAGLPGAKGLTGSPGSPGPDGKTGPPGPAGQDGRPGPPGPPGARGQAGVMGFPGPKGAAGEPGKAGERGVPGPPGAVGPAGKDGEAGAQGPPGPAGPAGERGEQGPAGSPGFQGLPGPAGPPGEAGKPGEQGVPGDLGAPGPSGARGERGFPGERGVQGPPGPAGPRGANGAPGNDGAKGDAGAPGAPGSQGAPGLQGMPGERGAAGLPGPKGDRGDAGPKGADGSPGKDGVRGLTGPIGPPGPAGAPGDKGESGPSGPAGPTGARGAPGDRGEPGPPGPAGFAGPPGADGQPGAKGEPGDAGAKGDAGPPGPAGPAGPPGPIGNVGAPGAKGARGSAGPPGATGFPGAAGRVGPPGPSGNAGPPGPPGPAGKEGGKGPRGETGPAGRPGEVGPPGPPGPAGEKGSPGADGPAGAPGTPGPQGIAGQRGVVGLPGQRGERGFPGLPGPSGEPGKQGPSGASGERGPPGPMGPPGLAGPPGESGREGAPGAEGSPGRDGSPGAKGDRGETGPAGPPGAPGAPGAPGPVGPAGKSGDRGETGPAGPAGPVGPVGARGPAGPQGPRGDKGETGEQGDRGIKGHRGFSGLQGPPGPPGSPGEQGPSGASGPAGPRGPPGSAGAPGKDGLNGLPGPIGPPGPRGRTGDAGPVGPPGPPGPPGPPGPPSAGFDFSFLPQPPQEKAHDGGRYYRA
Collagen type I, sequence (P08123 80-1119 limits assumed): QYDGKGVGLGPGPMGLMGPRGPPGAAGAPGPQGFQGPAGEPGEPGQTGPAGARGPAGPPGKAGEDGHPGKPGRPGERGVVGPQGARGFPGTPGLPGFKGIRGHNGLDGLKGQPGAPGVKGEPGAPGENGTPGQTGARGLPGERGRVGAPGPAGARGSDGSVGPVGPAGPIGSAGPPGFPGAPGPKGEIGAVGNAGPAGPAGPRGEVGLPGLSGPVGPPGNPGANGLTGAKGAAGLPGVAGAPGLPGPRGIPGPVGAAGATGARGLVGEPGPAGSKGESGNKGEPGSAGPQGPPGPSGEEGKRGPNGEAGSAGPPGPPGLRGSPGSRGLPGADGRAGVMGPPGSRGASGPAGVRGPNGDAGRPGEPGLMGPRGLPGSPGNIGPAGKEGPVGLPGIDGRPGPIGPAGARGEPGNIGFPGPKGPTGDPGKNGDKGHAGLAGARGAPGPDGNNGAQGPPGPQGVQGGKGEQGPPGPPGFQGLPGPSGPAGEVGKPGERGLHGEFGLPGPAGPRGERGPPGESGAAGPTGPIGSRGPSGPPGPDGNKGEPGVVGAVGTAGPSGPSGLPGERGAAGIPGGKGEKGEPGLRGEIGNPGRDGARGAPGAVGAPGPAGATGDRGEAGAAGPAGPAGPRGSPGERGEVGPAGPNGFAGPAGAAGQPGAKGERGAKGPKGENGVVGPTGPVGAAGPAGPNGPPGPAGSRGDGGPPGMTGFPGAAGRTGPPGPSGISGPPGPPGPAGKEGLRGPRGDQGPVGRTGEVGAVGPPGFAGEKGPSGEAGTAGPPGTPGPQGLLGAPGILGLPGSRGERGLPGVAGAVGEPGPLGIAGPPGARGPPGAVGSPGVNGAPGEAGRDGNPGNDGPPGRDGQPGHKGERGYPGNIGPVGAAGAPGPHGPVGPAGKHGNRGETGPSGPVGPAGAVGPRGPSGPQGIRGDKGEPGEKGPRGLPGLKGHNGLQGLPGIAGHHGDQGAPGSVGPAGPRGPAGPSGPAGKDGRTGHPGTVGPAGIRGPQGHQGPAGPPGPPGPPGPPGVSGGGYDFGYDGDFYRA

fibronectin = fibronectin (Homo sapiens, UniProt P02751); assay: IL-2 fusion protein plate binding assay to fibronectin
fibronectin, sequence (P02751 32-2477, species assumed): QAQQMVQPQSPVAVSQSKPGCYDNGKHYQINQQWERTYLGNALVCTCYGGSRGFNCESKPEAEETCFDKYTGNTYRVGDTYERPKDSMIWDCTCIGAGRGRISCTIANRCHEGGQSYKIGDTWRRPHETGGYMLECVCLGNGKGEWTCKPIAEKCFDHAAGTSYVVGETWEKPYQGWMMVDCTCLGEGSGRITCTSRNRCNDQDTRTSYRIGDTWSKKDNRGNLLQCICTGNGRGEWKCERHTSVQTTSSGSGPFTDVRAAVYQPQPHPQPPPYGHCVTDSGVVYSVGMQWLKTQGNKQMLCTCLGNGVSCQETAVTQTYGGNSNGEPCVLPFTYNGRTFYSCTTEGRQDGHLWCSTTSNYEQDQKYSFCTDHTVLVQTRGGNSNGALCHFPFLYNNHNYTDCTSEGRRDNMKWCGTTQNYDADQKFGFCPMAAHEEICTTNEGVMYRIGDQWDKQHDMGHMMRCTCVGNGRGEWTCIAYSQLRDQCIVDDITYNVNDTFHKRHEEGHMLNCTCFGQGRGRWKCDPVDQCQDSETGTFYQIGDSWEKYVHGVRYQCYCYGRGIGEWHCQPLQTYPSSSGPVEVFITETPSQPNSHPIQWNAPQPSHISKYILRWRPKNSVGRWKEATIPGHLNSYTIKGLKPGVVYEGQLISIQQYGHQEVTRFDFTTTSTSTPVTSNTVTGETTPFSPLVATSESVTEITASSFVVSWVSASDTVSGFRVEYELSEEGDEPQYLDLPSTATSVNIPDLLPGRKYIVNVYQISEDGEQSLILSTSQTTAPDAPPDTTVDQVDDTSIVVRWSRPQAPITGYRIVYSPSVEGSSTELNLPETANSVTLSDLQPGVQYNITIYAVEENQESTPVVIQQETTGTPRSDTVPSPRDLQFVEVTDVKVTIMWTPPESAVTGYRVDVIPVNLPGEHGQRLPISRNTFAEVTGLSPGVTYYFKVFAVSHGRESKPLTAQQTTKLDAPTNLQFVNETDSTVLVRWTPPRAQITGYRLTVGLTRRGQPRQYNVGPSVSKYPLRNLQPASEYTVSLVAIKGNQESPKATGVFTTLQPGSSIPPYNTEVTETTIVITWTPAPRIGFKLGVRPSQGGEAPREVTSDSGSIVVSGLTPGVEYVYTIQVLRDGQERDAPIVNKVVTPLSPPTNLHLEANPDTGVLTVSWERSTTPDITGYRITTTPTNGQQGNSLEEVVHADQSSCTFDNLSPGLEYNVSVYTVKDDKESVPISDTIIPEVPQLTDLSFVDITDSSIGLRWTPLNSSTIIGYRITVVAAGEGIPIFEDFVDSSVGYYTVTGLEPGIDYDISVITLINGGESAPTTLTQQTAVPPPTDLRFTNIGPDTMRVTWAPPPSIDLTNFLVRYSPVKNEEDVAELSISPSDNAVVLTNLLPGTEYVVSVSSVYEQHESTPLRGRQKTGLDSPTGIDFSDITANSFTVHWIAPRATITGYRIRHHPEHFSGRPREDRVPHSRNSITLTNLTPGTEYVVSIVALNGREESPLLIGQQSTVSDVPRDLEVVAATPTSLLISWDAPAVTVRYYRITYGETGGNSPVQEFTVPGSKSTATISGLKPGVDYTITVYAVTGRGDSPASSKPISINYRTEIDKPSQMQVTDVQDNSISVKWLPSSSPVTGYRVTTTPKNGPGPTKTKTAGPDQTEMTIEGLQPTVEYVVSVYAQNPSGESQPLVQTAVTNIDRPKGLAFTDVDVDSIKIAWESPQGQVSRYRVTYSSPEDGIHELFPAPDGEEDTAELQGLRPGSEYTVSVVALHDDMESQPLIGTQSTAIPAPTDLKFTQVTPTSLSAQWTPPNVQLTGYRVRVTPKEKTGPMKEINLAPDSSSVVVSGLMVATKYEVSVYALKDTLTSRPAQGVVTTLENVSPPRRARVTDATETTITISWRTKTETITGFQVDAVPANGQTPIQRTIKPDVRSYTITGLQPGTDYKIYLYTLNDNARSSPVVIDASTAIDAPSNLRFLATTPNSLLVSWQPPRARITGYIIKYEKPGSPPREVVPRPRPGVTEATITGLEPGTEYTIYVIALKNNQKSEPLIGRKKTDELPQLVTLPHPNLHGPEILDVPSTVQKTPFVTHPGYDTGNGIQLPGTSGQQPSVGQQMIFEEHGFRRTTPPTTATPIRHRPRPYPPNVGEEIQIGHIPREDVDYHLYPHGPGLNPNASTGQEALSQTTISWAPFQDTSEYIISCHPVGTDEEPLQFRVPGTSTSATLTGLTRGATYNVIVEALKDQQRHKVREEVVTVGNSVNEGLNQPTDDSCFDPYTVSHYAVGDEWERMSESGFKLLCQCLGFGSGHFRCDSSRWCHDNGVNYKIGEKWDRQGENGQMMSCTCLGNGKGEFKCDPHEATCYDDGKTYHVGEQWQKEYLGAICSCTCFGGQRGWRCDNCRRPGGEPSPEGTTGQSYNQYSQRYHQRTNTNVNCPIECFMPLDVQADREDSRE
Experimental: A similar plate-based assay was developed to interrogate binding of IL-2 fusion variants to fibronectin. 96-well plates were coated with 4 ug/mL of fibronectin (Sigma) or control BSA for 18-22 h at room temperature on shaker (350 rpm). After washing, wells are blocked with protein-free blocking buffer (Pierce) for 90 min, then fusion proteins are titrated in blocking buffer-0.1% Tween 20 pH 7.5 and/or pH 6 and added for 1 hr at room temperature with shaking. After washing, an anti-mouse IL-2 biotin-labelled detection antibody (JES6-5H4, ThermoFisher) is added and binding is detected using Ultra Streptavidin HRP (ThermoFisher). The plate was developed by adding the chromogenic tetramethylbenzidine substrate (Ultra TMB, ThermoFisher). The reaction is stopped by addition of 0.5M H2SO4 and the absorbance is read at 450-650 nm.

B16F10 melanoma = assay: In vivo efficacy of retention linker IL-2 drugs in B16F10 syngeneic model (Example 17); set-up: species or system mice
Experimental: (§1) In a first efficacy study, C57BL/6 mice were subcutaneously inoculated with B16F10 melanoma cells and when the average tumor volume reached on average 70-90 mm^3, animals were randomized into 5 groups based on tumor volumes (n=6 mice per treatment group). Mice were dosed intravenously every 3 days (Q3D) for a total of 5 doses according to following design:
as §1, with “second” for “first”, “study in the same model,” for “study,”
On Day 20, mice received an additional dose of drug, animals were sacrificed 24 hrs later and tissues and blood (processed to serum) were collected and stored at −80C for further testing. […] This is most likely due to the higher levels of both circulating drugs in serum and resident drug in TME, which can exert prolonged anti-tumor activity even after an extended dosing holiday.

HEK-Blue™ IL-2 cells = assay: HEK-Blue IL2 reporter assay (SEAP, OD630); type: cell-based; conditions: Table 5C
Experimental: Recombinant MMP9 and/or MMP2 (R&D Systems) was first activated with p-aminophenylmercuric acetate and this activated protease or equivalent amount of activating solution without the protease was used to digest or mock digest the fusion protein for 1 hr, 2 hr, 4 hr and overnight (18-22 hr) at 37 C. Cleavage assays are set up in TCNB buffer: 50 mM Tris, 10 mM CaCl2), 150 mM NaCl, 0.05% Brij-35 (w/v), pH 7.5. Digested protein was aliquoted and stored at −80° C. prior to testing. Aliquots of digests were subsequently analyzed by SDS-PAGE followed by Western blotting to evaluate the extent of cleavage. Digests were also assessed in functional assays such as CTLL-2 proliferation and HEK-Blue Interleukin reporter assays. As shown in FIGS. 2A-E, essentially complete cleavage by MMP9 protease of the fusion proteins with functional site is seen after overnight incubation. In contrast, proteins containing a scrambled MMP cleavage site are not cut (FIG. 2E). HEK-Blue™ IL-2 cells are specifically designed to monitor the activation of the JAK-STAT pathway induced by IL-2. Indeed, stimulation with human or murine IL-2 triggers the JAK/STAT5 pathway and induces secreted embryonic alkaline phosphatase (SEAP) production. SEAP can be readily monitored when using QUANTI-Blue™, a SEAP detection medium. These cells respond to human and murine IL-2. For the HEK Blue assay, untreated and digested samples are titrated and added to 50 000 HEK Blue cells per well in 200 ul medium in a 96-well plate and incubated at 37C in 5% CO2 for 20-24 hr. The following day, levels of SEAP are measured by adding 20 uL of cell supernatant to QuantiBlue reagent, followed by 1-3 h incubation at 37C and reading absorbance at 630 nm. FIGS. 3C-J, 3Q-Y and Table 5B-5C show results obtained from IL2 fusion proteins tested in HEK Blue IL2 assay.

heparin [2] = assay: IL-2 fusion protein plate binding assay to Heparin-BSA conjugate; conditions: pH 6 vs pH 7.5, plate assay
Experimental: 96-well plates were coated with 25 ug/mL of Heparin-BSA conjugate (provided by Dr. Mueller, Boerhinger Ingelheim) or control BSA for 18-22 h at room temperature on shaker (350 rpm). After washing, wells are blocked with PBS-0.05% Tween 20/1% BSA for 90 min, then fusion proteins are titrated in 1% BSA/PBS-0.05% Tween 20 pH 7.5 and/or pH 6 and added for 2 hr at room temperature with shaking. After washing, an anti-mouse IL-2 biotin-labelled detection antibody (JES6-5H4, ThermoFisher) is added and binding is detected using Ultra Strepavidin HIRP (ThermoFisher). The plate was developed by adding the chromogenic tetramethylbenzidine substrate (Ultra TMB, ThermoFisher). The reaction is stopped by addition of 0.5M H2SO4 and the absorbance is read at 450-650 nm.

[3] = Full-length drug levels in serum by ELISA; type: in vivo, mice; conditions: Construct Y 20 mg/kg Day 21 (8 days after last IV) vs Construct B 20 mg/kg Day 17 (4 days after)
Experimental: We developed an ELISA assay to detect and quantify fusion proteins comprising IL-2 and IL-2Rα moieties. Wells of a 96-well plate are coated overnight with 100 uL of a rat anti-mouse IL-2 monoclonal antibody (JES6-1A12; ThermoFisher) at […] in PBS. After washing, wells are blocked with TBS/0.05% Tween 20/1% BSA, then fusion proteins and/or unknown biological samples are added for 1 hr at room temperature. After washing, an anti-mouse IL-2Rα biotin-labelled detection antibody (BAF2438, R&D systems) is added and binding is detected using Ultra Strepavidin HRP (ThermoFisher). The ELISA plate was developed by adding the chromogenic tetramethylbenzidine substrate (Ultra TMB, ThermoFisher). The reaction is stopped by addition of 0.5M H2SO4 and the absorbance is read at 450-650 nm.
Additional serum samples collected at Day 17 (Construct B 20 mg/kg) and Day 21 (Construct Y 20 mg/kg), 4 days and 8 days respectively after the last IV injection, were assayed for full-length IL-2 fusion drug.

[4] = cleaved with MMP9, read-out: +MMP EC50

For “649 (GGKVEHRVKKRPPTWRHNVRAKYT) [Construct 649]”, which “binding to heparin, pH dependence” value (heparin [1]) is on record?
The value was “binds to heparin at low pH”.

For 193 (WREPSFCALS) [Construct 193], which Kd (Collagen type I) is on record?
Its Kd is 100000 nM.

With 650 (KKRPPTWRHNV) [Construct 650] as the molecule, how does the “binding to heparin, pH dependence” value (heparin [1]) read?
The value was “binds to heparin at low pH”.

Which Kd (Collagen type I) does the source give for 196 (WREPSFCALS) [Construct 196] here?
Its Kd is 100000 nM.

For 643 (TTEPSEEHNHHK) [Construct 643], which “affinity of binding to heparin at low pH” value (heparin [1]) is on record?
Its value is “binds to heparin at low pH (low affinity)”.

Which Kd (Collagen type I) does the source give for 194 (TKKTLRT) [Construct 194] here?
Its Kd is at most 100000 nM.

With “191 (MIVIELGTNPLKSSGIENGAFQGMKK) [Construct 191]” as the molecule, how does the Kd (Collagen type I) read?
The Kd was 394 nM.

Which “affinity of binding to heparin at low pH” value (heparin [1]) does the source give for 642 (KHAHLKKQVSDHIAVY) [Construct 642] here?
The value was “binds to heparin at low pH (high affinity)”.

Which “binding to heparin, pH dependence” value (heparin [1]) does the source give for “648 (KVEHRVKKRPPTWRHNVRAKYT) [Construct 648]” here?
The value was “binds to heparin at low pH”.

For 647 (HKGQHR) [Construct 647], which “affinity of binding to heparin at low pH” value (heparin [1]) is on record?
The value was “binds to heparin at low pH (lower affinity)”.

With 646 (TTEPSEEHNHHKHHDK) [Construct 646] as the molecule, how does the “affinity of binding to heparin at low pH” value (heparin [1]) read?
The value was “binds to heparin at low pH (lower affinity)”.

With 645 (TTEPSEEHNHHK) [Construct 645] as the molecule, how does the “affinity of binding to heparin at low pH” value (heparin [1]) read?
The value was “binds to heparin at low pH (lower affinity)”.

For “189 (RRANAALKAGELYKSILYGC) [Construct 189]”, which Kd (Collagen type I) is on record?
Its Kd is 860 nM.

For 195 (CPKESCNLFVLKD) [Construct 195], which Kd (Collagen type I) is on record?
The Kd was 681 nM.

Which Kd (Collagen type I) does the source give for 192 (LRELHLNNN) [Construct 192] here?
Its Kd is 170 nM.

For 197 (HVWMQAPGGGK) [Construct 197], which Kd (Collagen type I) is on record?
Its Kd is 61000 nM.

For 644 (KHAHL) [Construct 644], which “affinity of binding to heparin at low pH” value (heparin [1]) is on record?
Its value is “binds to heparin at low pH (lower affinity)”.

B1: Construct EE: SEQ ID NO 815: m IL2-SGG-GGWSHW-MMPcs1-2x(G4S)-mIL2Ra(1-215)-mu IgG1 Fc (protein)
chain: APTSSSTSSSTAEAQQQQQQQQQQQQHLEQLLMDLQELLSRMENYRNLKLPRMLTFKFYLPKQATELKDLQCLEDELGPLRHVLDLTQSKSFQLEDAENFISNIRVTVVKLKGSDNTFECQFDDESATVVDFLRRWIAFCQSIISTSPQSGGGGWSHWGPLGVRGGGGGSGGGGSELCLYDPPEVPNATFKALSYKNGTILNCECKRGFRRLKELVYMRCLGNSWSSNCQCTSNSHDKSRKQVTAQLEHQKEQQTTTDMQKPTQSMHQENLTGHCREPPPWKHEDSKRIYHFVEGQSVHYECIPGYKALQRGPAISICKMKCGKTGWTQPQLTCVDEREHHRFLASEESQGSRNSSPESETSCPITTTDFPQPTETTAMTETFVLTMEYKGCKPCICTVPEVSSVFIFPPKPKDVLTITLTPKVTCVVVDISKDDPEVQFSWFVDDVEVHTAQTQPREEQFNSTFRSVSELPIMHQDWLNGKEFKCRVNSAAFPAPIEKTISKTKGRPKAPQVYTIPPPKEQMAKDKVSLTCMITDFFPEDITVEWQWNGQPAENYKNTQPIMDTDGSYFVYSKLNVQKSNWEAGNTFTCSVLHEGLHNHHTEKSLSHSPGK
Which results are given for B1?
fibronectin binding at acidic pH (fibronectin; pH 6): preferentially binds fibronectin at acidic pH; fibronectin binding at pH 7.5 (fibronectin; pH 7.5 (neutral)): no binding is observed; TGI (%) D 15 (B16F10 melanoma; 10 mg/kg IV Q3D, 5 doses): 39.32%; TGI (%) D 20 (B16F10 melanoma; 10 mg/kg, 7 days following the fifth dose): 37.61%; EC50 (HEK-Blue™ IL-2 cells; [4]): 0.0066 nM; EC50 (HEK-Blue™ IL-2 cells; uncleaved, read-out: −MMP EC50): 1.18 nM

B2: Construct AA: SEQ ID NO 811: m IL2-SGG-FHRRIKA-MMPcs1-2x(G4S)-mIL2Ra(1-215)-mu IgG1 Fc (protein)
chain: APTSSSTSSSTAEAQQQQQQQQQQQQHLEQLLMDLQELLSRMENYRNLKLPRMLTFKFYLPKQATELKDLQCLEDELGPLRHVLDLTQSKSFQLEDAENFISNIRVTVVKLKGSDNTFECQFDDESATVVDFLRRWIAFCQSIISTSPQSGGFHRRIKAGPLGVRGGGGGSGGGGSELCLYDPPEVPNATFKALSYKNGTILNCECKRGFRRLKELVYMRCLGNSWSSNCQCTSNSHDKSRKQVTAQLEHQKEQQTTTDMQKPTQSMHQENLTGHCREPPPWKHEDSKRIYHFVEGQSVHYECIPGYKALQRGPAISICKMKCGKTGWTQPQLTCVDEREHHRFLASEESQGSRNSSPESETSCPITTTDFPQPTETTAMTETFVLTMEYKGCKPCICTVPEVSSVFIFPPKPKDVLTITLTPKVTCVVVDISKDDPEVQFSWFVDDVEVHTAQTQPREEQFNSTFRSVSELPIMHQDWLNGKEFKCRVNSAAFPAPIEKTISKTKGRPKAPQVYTIPPPKEQMAKDKVSLTCMITDFFPEDITVEWQWNGQPAENYKNTQPIMDTDGSYFVYSKLNVQKSNWEAGNTFTCSVLHEGLHNHHTEKSLSHSPGK
For B2, which EC50 (HEK-Blue™ IL-2 cells; [4]) is on record?
Its EC50 is 0.0109 nM.

What about the EC50 (HEK-Blue™ IL-2 cells; uncleaved, read-out: −MMP EC50) of the same molecule?
The EC50 was 0.442 nM.

B3: Construct Y: SEQ ID NO 809: m IL2(C140S)-VRIQRKKEKMKET-MMPcs1-2x(G4S)-mIL2Ra (1-215)-mu IgG1 Fc (protein)
chain: APTSSSTSSSTAEAQQQQQQQQQQQQHLEQLLMDLQELLSRMENYRNLKLPRMLTFKFYLPKQATELKDLQCLEDELGPLRHVLDLTQSKSFQLEDAENFISNIRVTVVKLKGSDNTFECQFDDESATVVDFLRRWIAFSQSIISTSPQVRIQRKKEKMKETGPLGVRGGGGGSGGGGSELCLYDPPEVPNATFKALSYKNGTILNCECKRGFRRLKELVYMRCLGNSWSSNCQCTSNSHDKSRKQVTAQLEHQKEQQTTTDMQKPTQSMHQENLTGHCREPPPWKHEDSKRIYHFVEGQSVHYECIPGYKALQRGPAISICKMKCGKTGWTQPQLTCVDEREHHRFLASEESQGSRNSSPESETSCPITTTDFPQPTETTAMTETFVLTMEYKIEGRMDGCKPCICTVPEVSSVFIFPPKPKDVLTITLTPKVTCVVVDISKDDPEVQFSWFVDDVEVHTAQTQPREEQFNSTFRSVSELPIMHQDWLNGKEFKCRVNSAAFPAPIEKTISKTKGRPKAPQVYTIPPPKEQMAKDKVSLTCMITDFFPEDITVEWQWNGQPAENYKNTQPIMDTDGSYFVYSKLNVQKSNWEAGNTFTCSVLHEGLHNHHTEKSLSHSPGK
With B3 as the molecule, how does the “heparin binding (qualitative)” value (heparin [2]) read?
Its value is “bind heparin in dose-dependent manner and with higher affinity than Construct B”.

And the “drug levels in circulation relative to Construct B” value [3]?
Its value is “more than 10 fold”.

And the “TGI (%) D 13” value (B16F10 melanoma; 20 mg/kg IV Q3D, 5 doses)?
The value was 77% and 76.59%.

And the EC50 (HEK-Blue™ IL-2 cells; [4])?
Its EC50 is 0.0109 nM.

And the EC50 (HEK-Blue™ IL-2 cells; uncleaved, read-out: −MMP EC50)?
Its EC50 is 1.23 nM.
